This assay deals with T cell receptor of the murine 2B4 T cell hybridoma. Put plainly: cell-based or functional assay.

A value given as a limit tells only on which side of the number the result lay.

For the substance “KbP-S-MCC (Lys-boroPro coupled through a spacer linker to the N terminus of moth cytochrome C peptide 94-103) (from UniProt P00039 94-103)”, the IL-2 production in 2B4 cells at 0.4 µM KbP-S-MCC, against the maximum response obtained with the MCC peptide alone is > 2 fold.

“Moth cytochrome C peptide MCC 94-103 (from UniProt P00039 94-103)” returned an IL-2 production in 2B4 cells: concentration needed for the maximum response, against 0.4 µM KbP-S-MCC (fold higher concentration) of 10.
